# In US20220119534A1 (DRAGONFLY THERAPEUTICS, published 2022):
# Residue numbers refer to the chain shown, from its start. Names and notes keep the numbering of the source. Values joined by “and” are separate entries in the source; they are usually repeats but may differ in a detail not shown here. Equal entries are not always repeated.
# B1: F3'-1602 TriNKET (bispecific antibody, human IgG1, kappa)
# chain: QLQLQESGPGLVKPSETLSLTCTVSGFSLTNYGLHWIRQPPGKCLEWIGVIWSGGKTDYNPSLKSRVTISKDTSKNQFSLKLSSVQAADTAVYYCAKYDYDDSLDYWGQGTLVTVSSGGGGSGGGGSGGGGSGGGGSDIQMTQSPSSLSASVGDRVTITCHASQNINFWLSWYQQKPGKAPKLLIYEASNLHTGVPSRFSGSGSGTRFTLTISSLQPEDIATYYCQQSHSYPLTFGCGTKLEIKGSDKTHTCPPCPAPELLGGPSVFLFPPKPKDTLMISRTPEVTCVVVDVSHEDPEVKFNWYVDGVEVHNAKTKPREEQYNSTYRVVSVLTVLHQDWLNGKEYKCKVSNKALPAPIEKTISKAKGQPREPRVYTLPPCRDELTKNQVSLTCLVKGFYPSDIAVEWESNGQPENNYKTTPPVLVSDGSFTLYSKLTVDKSRWQQGNVFSCSVMHEALHNHYTQKSLSLSPG
# heavy: EVQLVESGGGLVKPGGSLRLSCAASGFTFSSYSMNWVRQAPGKGLEWVSSISSSSSYIYYADSVKGRFTISRDNAKNSLYLQMNSLRAEDTAVYYCARGAPIGAAAGWFDPWGQGTLVTVSSASTKGPSVFPLAPSSKSTSGGTAALGCLVKDYFPEPVTVSWNSGALTSGVHTFPAVLQSSGLYSLSSVVTVPSSSLGTQTYICNVNHKPSNTKVDKKVEPKSCDKTHTCPPCPAPELLGGPSVFLFPPKPKDTLMISRTPEVTCVVVDVSHEDPEVKFNWYVDGVEVHNAKTKPREEQYNSTYRVVSVLTVLHQDWLNGKEYKCKVSNKALPAPIEKTISKAKGQPREPQVCTLPPSRDELTENQVSLTCLVKGFYPSDIAVEWESNGQPENNYKTTPPVLDSDGSFFLYSWLTVDKSRWQQGNVFSCSVMHEALHNHYTQKSLSLSPG
# light: DIQMTQSPSSVSASVGDRVTITCRASQGISSWLAWYQQKPGKAPKLLIYAASSLQSGVPSRFSGSGSGTDFTLTISSLQPEDFATYYCQQGVSFPRTFGGGTKVEIKRTVAAPSVFIFPPSDEQLKSGTASVVCLLNNFYPREAKVQWKVDNALQSGNSQESVTEQDSKDSTYSLSSTLTLSKADYEKHKVYACEVTHQGLSSPVTKSFNRGEC
# notes: Trispecific F3' format: CLEC12A scFv-Fc paired with NKG2D Fab-Fc; Stressed and control samples of the stability studies are the same molecule; also called AB0237
# B2: AB0089 TriNKET (bispecific antibody, human IgG1, kappa)
# chain: B1 chain with S53V, K56A, K71V, Y98G, D101G, S103T, R207D, I220F
# heavy: B1 heavy
# light: B1 light
# notes: F3' format heterodimer of three chains; human IgG1 Fc with EW-RVT and Y349C/S354C mutations; also called AB0089 Lot AB0089-002; CLEC12A TriNKET AB0089
# B3: F3'-1602 TriNKET (other)
# chain: B1 chain
# heavy: B1 heavy
# light: B1 light
# notes: CLEC12A scFv-Fc, NKG2D A49MI Fab-Fc, human IgG1 Fc; also called AB0237
# Legend:
# mFc-cNKG2D = target: T1, mFc-cNKG2D (cynomolgus monkey, UniProt P61252 73-216); assay: SPR Biacore 37 C; mFc-tagged cyno NKG2D dimer, TriNKET as analyte; 1:1 kinetic fit
# T1 construct: extracellular domain; Made in house (Dragonfly Tx); also called recombinant cyno NKG2D extracellular domain (ECD); mFc-tagged cyno NKG2D dimer; not shown: mouse Fc tag
# T1 sequence (looked up): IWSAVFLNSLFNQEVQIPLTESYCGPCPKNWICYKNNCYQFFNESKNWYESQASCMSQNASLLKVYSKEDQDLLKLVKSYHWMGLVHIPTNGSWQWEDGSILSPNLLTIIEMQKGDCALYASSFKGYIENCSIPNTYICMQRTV
# [1] = target: T2, Human CD16a V158 (FcγRIIIa V158) (human, UniProt P08637 17-208, biotinylated (site not stated)); assay: SPR; biotinylated CD16a V158 captured on SA chip, TriNKET as analyte; 1:1 kinetic fit; after 4 wks 40 C in CST pH 7.0, n=3
# T2 construct: V158 is the allele name in mature numbering; also called hCD16aV; hCD16a V158
# mFc-hNKG2D [2] = target: T3, mFc-hNKG2D (human, UniProt P26718 73-216); assay: SPR Biacore 8K 37 C; mFc-hNKG2D captured on anti-mFc chip, TriNKET as analyte; 1:1 kinetic fit; after 2 wks 40 C at pH 5.0
# T3 construct: extracellular domain; Made in house (Dragonfly Tx); the order of tag and ECD follows the name mFc-hNKG2D; also called mFc-tagged human NKG2D; not shown: mouse Fc tag
# T3 sequence (looked up): T1 sequence (looked up) with N43D, I133T
# mFc-hNKG2D [3] = target: T3, mFc-hNKG2D; assay: SPR Biacore 8K 37 C; mFc-hNKG2D captured on anti-mFc chip, TriNKET as analyte; steady state fit; after 2 wks 40 C at pH 8.0
# Human CLEC12A-His = target: T4, Human CLEC12A-His (human, UniProt Q5QGZ9 65-265); assay: SPR Biacore 8K 37 C; TriNKET captured on anti-hFc chip, hCLEC12A-His as analyte; 1:1 fit; after 4 wks 2-8 C in CST pH 7.0, n=2
# T4 construct: Recombinant soluble protein made in house (Dragonfly Tx); The hCLEC12A spot of the HuProt array is written under this molecule as well; also called hCLEC12A-His; hCLEC12A; not shown: His tag
# T4 sequence: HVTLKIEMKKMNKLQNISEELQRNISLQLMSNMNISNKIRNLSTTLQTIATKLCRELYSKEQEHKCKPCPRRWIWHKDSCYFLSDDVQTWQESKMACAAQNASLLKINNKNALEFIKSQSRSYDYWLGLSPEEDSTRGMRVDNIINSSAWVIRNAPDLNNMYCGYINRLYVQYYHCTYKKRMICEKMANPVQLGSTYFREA
# [4] = target: T5, Human CD16a F158 (FcγRIIIa F158) (human, UniProt P08637 17-208, biotinylated); assay: SPR 25C, receptor captured, steady-state fit
# T5 construct: Bought recombinant receptor; also called hFcγRIIIa F158
# [5] = target: T6, mFc-hNKG2D (recombinant mFc-tagged human NKG2D dimer) (human, UniProt P26718 73-216); assay: SPR 37C, mFc-hNKG2D captured, 1:1 kinetic fit
# T6 construct: extracellular domain; Made in house; not shown: mouse Fc tag
# T6 sequence (looked up): T1 sequence (looked up) with N43D, I133T
# [6] = target: T7, Human CLEC12A-His (recombinant, K244 WT) (human, UniProt Q5QGZ9 65-265); assay: SPR, two-state fit (ka1); after forced oxidation
# T7 construct: Made in house (Dragonfly Tx); also called hCLEC12A; hCLEC12A-His; not shown: His tag
# T7 sequence: T4 sequence
# [7] = target: T8, recombinant human CD32a H131 (human, UniProt P12318 36-218, limits assumed, biotinylated); assay: SPR 25C, steady state
# T8 construct: also called FcγRIIa H131
# T8 sequence (looked up): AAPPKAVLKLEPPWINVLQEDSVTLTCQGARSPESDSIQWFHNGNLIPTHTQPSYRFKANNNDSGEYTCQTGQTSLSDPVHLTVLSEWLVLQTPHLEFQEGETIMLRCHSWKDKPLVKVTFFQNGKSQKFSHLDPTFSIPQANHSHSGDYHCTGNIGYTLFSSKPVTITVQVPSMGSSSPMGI
# [8] = target: T9, recombinant human CD16a F158 (human, UniProt P08637 17-208); assay: SPR 25C, steady state
# T9 construct: also called FcγRIIIa F158
# recombinant human CD32b = target: T10, recombinant human CD32b (human, UniProt P31994 46-217, limits assumed, biotinylated); assay: SPR 25C, steady state, average
# T10 construct: also called FcγRIIb
# T10 sequence (looked up): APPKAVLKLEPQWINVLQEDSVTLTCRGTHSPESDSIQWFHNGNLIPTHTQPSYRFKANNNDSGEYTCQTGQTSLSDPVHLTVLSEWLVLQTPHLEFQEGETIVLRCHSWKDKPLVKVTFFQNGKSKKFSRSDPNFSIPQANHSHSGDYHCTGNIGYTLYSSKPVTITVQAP
# [9] = target: T11, human CLEC12A expressed on cells (human, UniProt Q5QGZ9 1-265); assay: flow cytometry, hCLEC12A+ Ba/F3
# T11 construct: Transduced isogenic cells or endogenous expression on AML cells; also called RMA-hCLEC12A; Ba/F3-hCLEC12A
# T11 sequence: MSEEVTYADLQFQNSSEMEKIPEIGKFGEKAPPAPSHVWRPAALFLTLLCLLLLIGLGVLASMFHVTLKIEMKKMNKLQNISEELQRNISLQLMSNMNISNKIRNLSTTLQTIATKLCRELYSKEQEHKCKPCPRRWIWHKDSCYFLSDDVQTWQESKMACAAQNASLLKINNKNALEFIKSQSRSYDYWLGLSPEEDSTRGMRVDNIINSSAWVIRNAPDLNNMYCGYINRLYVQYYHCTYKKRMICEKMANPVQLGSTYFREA
# T2 sequence (P08637 17-208 F176V limits assumed): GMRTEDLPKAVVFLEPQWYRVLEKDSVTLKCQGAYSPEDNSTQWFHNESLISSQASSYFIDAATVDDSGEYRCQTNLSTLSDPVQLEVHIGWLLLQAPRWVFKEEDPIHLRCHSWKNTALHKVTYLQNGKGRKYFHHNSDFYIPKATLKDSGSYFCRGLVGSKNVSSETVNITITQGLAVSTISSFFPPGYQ
# T5 sequence (P08637 17-208 limits assumed): as the sequence (P08637 17-208 F176V limits assumed) above, with V160F counted along it
# T9 sequence (P08637 17-208 limits assumed): as the sequence (P08637 17-208 F176V limits assumed) above, with V160F counted along it
binder,measurement,setting,value
B1,koff,mFc-cNKG2D,0.147 s⁻¹ and 0.136 s⁻¹ and 0.145 s⁻¹ and 0.135 s⁻¹
same,kon,mFc-cNKG2D,177000 M⁻¹ s⁻¹ and 164000 M⁻¹ s⁻¹ and 156000 M⁻¹ s⁻¹ and 176000 M⁻¹ s⁻¹
same,Kd,[1],213 nM
same,koff,[1],0.0225 s⁻¹
same,kon,[1],105000 M⁻¹ s⁻¹
same,Kd,mFc-hNKG2D [2],675 nM
same,koff,mFc-hNKG2D [2],0.127 s⁻¹
same,kon,mFc-hNKG2D [2],188000 M⁻¹ s⁻¹
same,Kd,mFc-hNKG2D [3],919 nM
same,Kd,Human CLEC12A-His,0.91 nM
same,koff,Human CLEC12A-His,0.000708 s⁻¹
same,kon,Human CLEC12A-His,776000 M⁻¹ s⁻¹
B2,Kd,[4],1250 nM and 1280 nM and 1300 nM
same,Kd,[5],872 nM and 892 nM and 880 nM
same,koff,[5],0.141 s⁻¹ and 0.142 s⁻¹ and 0.146 s⁻¹
same,kon,[5],161000 M⁻¹ s⁻¹ and 159000 M⁻¹ s⁻¹ and 166000 M⁻¹ s⁻¹
same,kon,[6],9.93e+06 M⁻¹ s⁻¹
B3,Kd,[7],900 nM and 800 nM
same,Kd,[8],1130 nM and 1120 nM and 1090 nM
same,Kd,recombinant human CD32b,6600 nM
same,EC50,[9],3.2 nM
